Measurements taken from PMC12299905, “Pathogen Enzyme-Mediated Alkoxyamine Homolysis as a Killing Mechanism of Aspergillus fumigatus” (Journal of Fungi, 2025).
Converted amounts (≈) assume the structure as drawn.

What was measured:
[1] = Homolysis kinetics / stability of alkoxyamines by EPR; type: physicochemical; details: for activation energy Ea of homolysis: from kd by Arrhenius law
Method: Homolysis constants were measured by Electronic Paramagnetic Resonance (EPR) on a EMX Bruker spectrometer, with O2 as the alkyl radical scavenger, as previously reported. Thermic activation led to the liberation of nitroxide: (2,2,6,6-tetramethylpiperidin-1-yl)oxyl (TEMPO). The details of the kinetic experiments in aqueous or solvent phases and the values of homolysis rate constants (kd), activation energies (Ea), and half-life times (t1/2) are reported in Supplementary Information and Data (see below).
Indeed, the activation energies of these alkoxyamines range from 121 to 140 kJ/mol with half-life times longer than 10 days (Supplementary Table S1). Moreover, the values were measured for a mixture of the two diastereoisomers. […] The solvent effect (i.e., t-BuPh) versus H2O/1-PrOH (99:1) was also investigated. […] Overall, there is no stability concern for these molecules with respect to the subsequent biological studies.
EPR kinetic figures of homolysis rate constants ( kd), activation energies ( Ea) and half-life
Molecule Solvent T (°C)a kd (s-1)b,c Ea (kJ·mol-1)d t1/2(37 °C) (days)

[2] = test system: Ku80 azole-susceptible strain; assay: Exposure of A. fumigatus spores to alkoxyamines, azole-susceptible strain; type: cell-based; details: Aspergillus fumigatus
Method: (§1) Ku80 azole-susceptible strain and FC240 azole-resistant strain were kindly provided by Prof. J.-P. Latge and Dr E. Fréalle (Lille University Hospitals, Lille, France). The latter strain harbors a 34 bp tandem repeat mutation (TR34) in the cyp51A gene promoter combined with a substitution in codon L98H. The strains of A. fumigatus were used for spore preparation as previously described. Briefly, spores were grown from frozen stocks on Sabouraud + Chloramphenicol agar tubes (BioMérieux, Marcy l’Etoile, France) at 37 °C for 7 days. Next, conidia were collected by scraping and suspending in PBS containing 0.01% Tween 20 (Sigma-Aldrich®, St. Louis, MO, USA). Spore counting was performed using a Kova® hemacytometer, and aliquots of 10^6 spores were prepared.
(§2) A. fumigatus spores were exposed to various concentrations of alkoxyamines (1, 10, 100, and 1000 µM), with each concentration in triplicate. Controls were grown alone (without alkoxyamine treatment) or exposed to the antifungal voriconazole under the same experimental conditions. Briefly, the reactions were performed in well plates in a total volume of 250 μL RPMI medium. At the end of the incubation time period (48 h), the optical densities (OD600 nm) of scrapped cultures were recorded in one set of the reactions using a spectrophotometer (Thermo Fisher Scientific, Illkirch, France). […] Experiments were repeated at least three times.

[3] = test system: FC240 azole-resistant strain; assay: Exposure of A. fumigatus spores to alkoxyamines, azole-resistant strain; type: cell-based; details: Aspergillus fumigatus
Method: as §1, §2

[4] = H2O/1-PrOH 99:1, extrapolated to 37 °C
[5] = t-BuPh/DCM 99:1, extrapolated to 37 °C
[6] = t-BuPh, mixture of two diastereoisomers

SMILES | half-life time t1/2 (37 °C) of homolysis [1, 5] | activation energy Ea of homolysis ([1]; t-BuPh/DCM 99:1) | activation energy Ea of homolysis [1, 6] | also measured
CC(ON1C(C)(C)CCCC1(C)C)c1ccc(NC(=O)[C@@H]2CCCN2C(=O)CNC(=O)CCC(=O)O)cc1 (stereo partly shown) [VIa] | 1519 days | 134.5 kJ/mol |  | half-life time t1/2 (37 °C) of homolysis [1, 4]: 10 days; activation energy Ea of homolysis ([1]; H2O/1-PrOH 99:1): 121.6 kJ/mol
C[C@@H](c1ncncc1F)[C@](O)(Cn1cncn1)c1ccc(F)cc1F [voriconazole] |  |  |  | MIC [2]: 0.25 mg/L (≈ 0.716 µM); MIC [3]: 4 mg/L (≈ 11.5 µM)
CC(ON1C(C)(C)CCCC1(C)C)c1ccc(NC(=O)[C@@H]2CCCN2C(=O)CNC(=O)OCC2c3ccccc3-c3ccccc32)cc1 (stereo partly shown) [4a] |  |  | 139.5 kJ/mol | 
CC(ON1C(C)(C)CCCC1(C)C)c1ccc(NC(=O)[C@@H]2CCCN2)cc1 (stereo partly shown) [compound 3] | 2554 days | 135.9 kJ/mol |  | 
CC(ON1C(C)(C)CCCC1(C)C)c1ccc(NC(=O)[C@@H]2CCCN2C(=O)OC(C)(C)C)cc1 (stereo partly shown) [compound 2] |  |  | 137.8 kJ/mol | half-life time t1/2 (37 °C) of homolysis ([1]; t-BuPh, extrapolated to 37 °C): 5395 days
CC(ON1C(C)(C)CCCC1(C)C)c1ccc(NC(=O)[C@@H]2CCCN2C(=O)[C@H](C)NC(=O)CCC(=O)O)cc1 (stereo partly shown) [VIb] | 3632 days | 136.8 kJ/mol |  | half-life time t1/2 (37 °C) of homolysis [1, 4]: 199 days; activation energy Ea of homolysis ([1]; H2O/1-PrOH 99:1): 129.3 kJ/mol
CC(ON1C(C)(C)CCCC1(C)C)c1ccc(NC(=O)[C@@H]2CCCN2C(=O)[C@H](C)NC(=O)OCC2c3ccccc3-c3ccccc32)cc1 (stereo partly shown) [4b] |  |  | 138.7 kJ/mol | 
